In patent US5914254:

Tests used:
[1] = biological target: native dsbA (with leader)-biotinylation peptide (pDM25453) (E. coli) (UniProt P0AEG4)
[2] = biological target: insulin substrate
[3] = biological target: 125I-radiolabeled IGF-I; assay: dot blot of serial dilutions of crude soluble fractions probed with 125I-IGF-I; tells of the amount of active protein, not of affinity

Substance	Oxidoreductase Activity of DsbA, Activity (U/min-mg), TEX fraction [2] [U/min-mg]	other results
E. coli biotin holoenzyme synthetase (from UniProt P06709)		efficiency of in vivo biotinylation of the Ni-NTA purified proteins of pDM25450 and pDM25453 [1]: < 10 fold
E. coli DsbA expressed with its leader sequence (pYZ9205) (from UniProt P0AEG4) (enzyme)	0.089	
DsbA-ubiquitin-IGFBP-3 fusion (pDM15427) (from UniProt P0AEG4)		fold increase in the recovery of bioactive IGFBP-3 (IGF-I binding activity of the crude extract, against the ubiquitin-IGFBP-3 fusion) [3]: 16 fold
leaderless E. coli DsbA (pYZ9206) (from UniProt P0AEG4) (enzyme)	0.1	
